Kd data for one substance are collected here from paper PMC4344939.

pKd: −log10 of the molar value.

The target of the assay is Recombinant human galectin-1 (human) (UniProt P09382). As to the kind of experiment: SPR.
Chain of UniProt P09382 (P09382 whole entry): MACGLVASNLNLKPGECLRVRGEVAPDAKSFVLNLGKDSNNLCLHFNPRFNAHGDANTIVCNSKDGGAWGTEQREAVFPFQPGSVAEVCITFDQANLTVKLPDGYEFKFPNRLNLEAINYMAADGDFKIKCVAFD

“Recombinant hemagglutinin (HA) from influenza A H1N1 (A/Puerto Rico/8/1934) (from UniProt P03452) (natural protein)”: the pKd is 6.37.
